Results as given in patent publication US20240050600A1, “Radiopharmaceuticals, uses thereof, and methods for the production thereof” (priority 2020, published 2024).

Assay: in vivo
Parameters: species or system Balb/c nude mice
Details: male, Balb/c nude, mouse, iv, total radioactivity
Source text: Healthy male Balb/c nude mice (˜18 g) from 8 weeks old were obtained from the ARC and used for this study. Mice were imported into the CAI animal holding facility and monitored for 1 week prior to the study in order to acclimatise to the environment prior to injection of cells. All animals were provided with free access to food and water before and during the imaging experiments which were approved by the University of Queensland Animal Ethics Committee (Approval #AIBN/CAI/105/19/ARC/NHMRC).
8-week-old male Balb/c nude mice were injected (27 G needle) subcutaneously with PC3 ([…]) cells in 50 μL of 50:50 matrigel and cells in phosphate buffered saline into the right flank of each mouse. There was no evidence of ulceration at the time of dosing; the animals were closely monitored and remained in good condition apart from the growth of tumours. […] Labelled peptides were injected via the tail vein (29 G needle; ˜2-3 MBq) and then mice were imaged using the Siemens Inveon PET-CT instrument at the various timepoints.
The injection syringe was filled with the radioisotope solution (approximately 150 μL) and the activity in the syringe was measured using a dose calibrator (Capintec CRC-25) with a calibration factor of 35. The activity left in the syringe after the tail vein injection was measured using the same dose calibrator and the total volume injected in each mouse was calculated.
Organs were excised at 24 hours, with the percentage of injected dose of the administered compound determined by ex vivo gamma counting (Table 2). Values are averages across 4 mice.

[1] = Percentage of injected dose in Blood
[2] = Percentage of injected dose in GI Tract
[3] = Percentage of injected dose in Heart
[4] = Percentage of injected dose in Kidneys
[5] = Percentage of injected dose in Liver
[6] = Percentage of injected dose in Lungs
[7] = Percentage of injected dose in Pancreas
[8] = Percentage of injected dose in Spleen
[9] = Percentage of injected dose in Tail
[10] = Percentage of injected dose in Tumour

Row | SMILES | tissue uptake at 24 h [1] [%ID/g] | tissue uptake at 24 h [2] [%ID/g] | tissue uptake at 24 h [3] [%ID/g] | tissue uptake at 24 h [4] [%ID/g] | tissue uptake at 24 h [5] [%ID/g] | tissue uptake at 24 h [6] [%ID/g] | tissue uptake at 24 h [7] [%ID/g] | tissue uptake at 24 h [8] [%ID/g] | tissue uptake at 24 h [9] [%ID/g] | tissue uptake at 24 h [10] [%ID/g]
1 | CC(C)C[C@H](NC(=O)C[C@H](O)[C@H](CC(C)C)NC(=O)[C@H](Cc1c[nH]cn1)NC(=O)CNC(=O)[C@@H](NC(=O)[C@H](C)NC(=O)[C@H](Cc1c[nH]c2ccccc12)NC(=O)[C@H](CCC(N)=O)NC(=O)[C@@H](Cc1ccccc1)NC(=O)CCOCCOCCOCCOCCNC(=O)CCCC(=O)NC12CNCCNCC(NC(=O)CCCC(=O)NC(CCCCNC(=O)CCCc3ccc(I)cc3)C(=O)O)(CNCCNC1)CNCCNC2)C(C)C)C(N)=O (stereo partly drawn) [Sar(ABG)(BBN)] | 7.22 ± 0.79 | 1.93 ± 0.46 | 3.1 ± 0.53 | 4.29 ± 0.54 | 2.96 ± 0.3 | 4.85 ± 0.93 | 6 ± 1.17 | 2.68 ± 0.33 | 2.06 ± 0.3 | 22.3 ± 11
2 | CC(C)CC(NC(=O)CC(O)C(CC(C)C)NC(=O)C(Cc1c[nH]cn1)NC(=O)CNC(=O)C(NC(=O)C(C)NC(=O)C(Cc1c[nH]c2ccccc12)NC(=O)C(CCC(N)=O)NC(=O)C(Cc1ccccc1)NC(=O)CCOCCOCCOCCOCCNC(=O)CCCC(=O)NC12CNCCNCC(NC(=O)CCCC(=O)NCCOCCOCCOCCOCCC(=O)NC(Cc3ccccc3)C(=O)NC(CCC(N)=O)C(=O)NC(Cc3c[nH]c4ccccc34)C(=O)NC(C)C(=O)NC(C(=O)NCC(=O)NC(Cc3c[nH]cn3)C(=O)NC(CC(C)C)C(O)CC(=O)NC(CC(C)C)C(N)=O)C(C)C)(CNCCNC1)CNCCNC2)C(C)C)C(N)=O (stereo not drawn) [Sar(BBN)2] | 0.1 ± 0.05 | 0.44 ± 0.04 | 0.21 ± 0.03 | 6.81 ± 0.67 | 16.8 ± 1.55 | 0.36 ± 0.12 | 0.84 ± 0.06 | 1.47 ± 0.2 | 0.28 ± 0.05 | 2.13 ± 0.86
3 | CC(C)C[C@H](NC(=O)C[C@H](O)[C@H](CC(C)C)NC(=O)[C@H](Cc1c[nH]cn1)NC(=O)CNC(=O)[C@@H](NC(=O)[C@H](C)NC(=O)[C@H](Cc1c[nH]c2ccccc12)NC(=O)[C@H](CCC(N)=O)NC(=O)[C@@H](Cc1ccccc1)NC(=O)CCOCCOCCOCCOCCNC(=O)CCCC(=O)NC12CNCCNCC(N)(CNCCNC1)CNCCNC2)C(C)C)C(N)=O [Sar(BBN)] | 0.13 ± 0.04 | 0.3 ± 0.07 | 0.24 ± 0.02 | 3.55 ± 0.79 | 1.52 ± 0.18 | 0.31 ± 0.08 | 0.23 ± 0.02 | 0.38 ± 0.06 | 0.56 ± 0.87 | 4.09 ± 0.52
